This sample holds only a part of the variants without activity.
B1: TPR 5TU (parent)
chain: GGAUCUUCUCGAUCUAACAAAAAAGACAAAUCUGCCACAAAGCUUGAGAGCAUCUUCGGAUGCAGAGGCGGCAGCCUUCGGUGGCGCGAUAGCGCCAACGUUCUCAACUAUGACACGCAAAACGCGUGCUCCGUUGAAUGGAGUUUAUCAUG

Variants of: B1
Test: polymerase ribozyme fitness, log enrichment relative to wild type (log ratio); higher = more active; in vitro selection for triplet polymerase activity
Procedure, shortened: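 After PCR construction and transcription, each subunit's mutant library from a heterodimeric triplet polymerase ribozyme was annealed with a biotinylated primer, the partner subunit and triplets. Incubation was frozen, at −7 °C, and extended constructs were gel-excised, bound to streptavidin beads and amplified by RT-PCR, in one selection round done in triplicate. Fitness is the logarithm of a genotype's enrichment divided by that of the wild type, from inverse-variance-weighted replicate averages of Illumina-sequenced inputs and outputs. The base of the logarithm is 2, and genotypes needed ≥10 input reads and ≥1 read per output.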

Variant | polymerase ribozyme fitness (log ratio)
GGAUCUUCUCGAUCUAACAAAAAUGACAAAUCUGCCAGAAAGCUUGAGAGCAUCUUGGGAUGCAGAGGCGGCAGCCUUCGGUCGCGCGAUUGCGCCAACGUUCUAAACUAUGACACGCAAAACGCGUGCUCCGUUGAAUGGAGUUUAUAAUG | ≤ -4.2
GGAUCUUCUCGAUCUAACAAAAAUGACAAAUCUGCCACAAAGCUUGAGAGCAUCUUCGGAUGCAGAGGCGGCAGCCUUCGGUGGCGCGAUAGAGCCAACGUUCUCAACUAUAAUAGGCGAAACGCGUGCUCCGUUGAAUGGAGUUUAUCAUG | ≤ -4.2
GGAUCUUCUCGAUCUAACAAAAAUGACAAAUCUGCCACAAAGCUUGAGAGCAUCUUCGGAUGCAGAGGCGGCAGCGUUCGGUGGCGCGAUAGCGCCAACGUUCUCAACUAUGACACGCAAAACGCGUGCUCCGUUGAGUGGAGUUUAUCAUG | ≤ -4.2
GGAUCUUCUCGAUCUAACAAAAAUGACAAAUCUGACACAAAGCUUGAGAGCAUCUUCGGAUGCAGAGGCGGCAGCCUUCGGUGGUGCGAUAGCGCCAACGUUCUCAACUAUGACACGCAAAACGCGUGCUCAGUUGAAUGGAGUUUAUCAUG | ≤ -4.2
GGAUCUUCUCGAUCUAACAAAAAUGACAAAUCUGCCACAAAGCUUGAGAGCUUCUUCGGAUGCAGAGGCGGCAGCCUUCGGUGGCGCGAUAGCGCCAACGUUCUCAACUAUGACACGGAAAACGCGUGCUCCGUUGAAUGGUGUUUAUCAUG | -3.54
GGAUCUUCUCGAUCUAACAAAAAUGAUAAAUCUGCCACAAAGCUUGAGAGAAUCUUCGGAUGCAGAGGCGGCAGCCUUCGGUGGCGCGAUAACGCCAACGUUCUCAACUAUGUCACGCAAAACGCGUGCUCCGUUGAAUGGAGUUUAUCAUG | ≤ -4.2
GGAUCUUCUCGAUCUAACAAAAAUGACAAAUCUGCCACAAAGCUUGAGAGCAUAUUCGGAUGCAGAGGCGGCAGCCUUCGGUGGCACGAUAGCGCCAACGUUCUCAACUAUGACACGCAAAACGCGUGCUCCGUUGAAUGGAGUUUAUCAUG | -3.38
GGAUCUUCUCGAUCUAACAAAAAUGACAAAUAUGCCACAAAGCUUGAGAGCAUCUUCGGAUGCAGAGGCGGCAGCCUUCGGUGGCGCGAUAGCGCCAACGUUCUCAACUAUGACACGCAAAACGCGUGCUCCGUUGAAUGGAGUUUAUCAUG | -3.85
GGAUCUUCUCGAUCUAACAAAAAUGACAAAUCUGCCACAAAGCUUGAGAGCAUCUUCGGAUGCAGGGGCGGCAGCCUUCGGUGGCGCGAUAGCGCCAACGUUCUCAACUAUGACACGCAAAACGCGUGCUCCGUUGAAUGGAGUUUAUCAUG | -3.16
GGAUCUUCUCGAUCUAACAAAAAUGACAAAUCUGCCACAAAGCUUGAGAGCAUCUUCGGAUGCAGAGGCGGCAGCCUUCGGUGGCGAGAUAGCGCCAACGUUCUCAACUAUGACACGCAAAACGCGUGCUCCGUUGAAUGGAGUUUAUCAUG | ≤ -4.2
GGAUCUUCUCGAUCUAACAAAAAUGACAAAUCUGCCACAAAGCUUGAGAGCAUCUUCGGAUGCAGAGGCGGCAGCCUUCGGUGGCGUGAUAGCGCCAACGUUCUCAACUAUGACACGCAAAACGCGUGCUCCGUUGAAUGGAGUUUAUCAUG | -0.48
GGAUCUUCUCGAUCUAACAAAAAUGACAAAUGUGCCACAAAGCUUGAGAGCAUCUUCGGAUGCAGAGGCGGCAGCCUUCGGUGGCGCGAUAGCGCCAACGUUCUCAACUAUGACACGCAAAACGCGUGCUCCGUGGAAUGGAAUUUAUCAUG | -4.12
GGAUCUUCUCGAUCUAACAAAAAUGACAAAUCUGCCACAAAGCUUGAGGGCCACAUCGGAUGCAGAGGAGGCAGCCUUCGGUGGCGCGAUAGCGCCAACGUUCUCAACUAUGACACGCAAAACGCGUGCUCCGUUGAAUGGAGUUUAUCAUG | ≤ -4.2
GGAUCUUCUCGAUCUAACAAAAAUGACAAAUCUGCCACAAAGCUUGAGAGCAUCUUUGGAUGCAGAGGCGGCAGCCUUCGGUGGCGCGUUACCGCCAACGUUCUCAACUAUGACACGCAAAACGCGCGCUGCGUUGAAUGGAGUUUAUCAUG | ≤ -4.2
GGAUCUUCUCGAUCUAACAAAAAUGACAAAUCUGCCACAAAGCUUGAGAGAAUCUACGGAUGCAGAGGCGUCAGCCUUCGGUGGCGCCAUAGCGCCAACGUCCUCAACUAUGACACGCAAAACGCGUGCUCCGUUGAAUGGAGUUUAUCAUG | ≤ -4.2
GGAUCUUCUCGAUCUAACAAAAAUGACAAAUCUGCCACAAAGCUUGAGAGCAUCUUCGGUUGCAGAGGCGGCAGCCUUCGGUAGCGCGAUAGCGCCAACGUUCUCAACUAUGACACGCAAAACGCGUGCUCCGUUGAAUGGAGUUUAUCAUG | -1.22
GGAUCUUCUCGAUCUAACAAAAAUGACAAAUCUGCCACAAAGCUUGAGAGCAUCUUCGGGUGCAGAGGCGGCAGCCUUCGGUGGUGCGAUAGCGCCCACGUUCUCAACUAUGACACGCAAAACGCGUGUUCCGUUGAAUGGAGUUUAUCAUG | -0.602
GGAUCUUCUCGAUCUAACAAAAAUGACAAAUCUGUCAGAAAGCUUGAGAGCAUCUUCGGAUGCAGAGGCGGCAGCCUUCGGUGGCGCGUUUGCGCCAACGUUCUCAACUAUGACACGCAAAACGCGUGCUCCGUUGAAUGGAGUUUAUCAUG | -3.93
GGAUCUUCUCGAUCUAACAAAAAUGACAAAUCUGCCACAAAGCUUGAGAGCGUCUUCGGAUGCAGAGGCGGCAGCCUUCGGUGGCGCGAUAGCGCCAACGUUCUCGACUAUGACACGCAAAACGCGUGCUCCGUUGAAUGGAAUUUAUCAUG | -1.81

Variant | polymerase ribozyme fitness (log ratio)
GGAUCUUCUCGAUCUAACAAAAAUGACAAAUCUGCCACAAAGCUUGAGAGCGUCUUCGGAUGCAGAGGGCGCAGCCUUCGGUGGCGCAAUAGCGCCAACGUUCUCAACUAUGACACGCAAAACGCGUGCUCCGUUGAAUGGAGUUUAUCAUG | ≤ -4.2
GGAUCUUCUCGAUCUAACAAAAAUGACAAAUCUGCCACAAAGCUUGAGAGCAUCUUCGGAUGCAGAGGCGGCAGCCUUCGGUGGCGCGAUAGUGCCAACGUUCUCAACUAUGACACGCCAAACGCGUGCUCCGUUGAAUGGAGUUUAUCAUG | -1.98
GGAUCUUCUCGAUCUAACAAAAAUGACAAAUCUGCCACAAAGCUUGAGAGCAUCUUCGGAUGCAGAGGCGGCAGCCUUCGGUGGUGCGAUAGCGCCAACGUUCUCAACUAUGACACGCAAAACGCGUGCUCCGUUGAAUGGAGUUUAUCAUG | -0.914
GGAUCUUCUCGAUCUAACAAAAAUGACAAAUCUGCCACAAAGCUUGAGAGCAUCUUCGGAUGCAGAGGCGGCUGCCUUCGGUGGCGCGAUAGCGCCAACGUUCUCAACUAUGACACGCGAUACGCGUGCUCAGUUGAAUGGAGUUUAUCAUG | -3.66
GGAUCUUCUCGAUCUAACAAAAAUGACAAAUCUGACACAAAGCUUGAGAGCUUCUUCGGAUGCAGAGGCGGCAGCCUUCGGUGACGCGAUAGCGCCAACGUUCUCAACUAUGACACGCAAAACGCGUGCUCCGUUAAAUGGAGUUUAUCAUG | ≤ -4.2
GGAUCUUCUCGAUCUAACAAAAAUGAGAAAUCUGCCACAAAGCUUGAGACCAUGUUCGGAUGCCGAGGCGGCAGCCUUCGGUGACCCGAUAGCGCCAACGUUCUCAACUAUGACACGGAAAACGCGUGCUCCGUUGAAUGGAGUUUAUUAUG | ≤ -4.2
GGAUCUUCUCGAUCUAACAAAAAUGACAAAUCUGCCACAAAGCUUGAGAGCAUCUUCGGAUGCAGAGGCGGCUGCCUUCGGUGGCGAGUUAGCGCCAACGUUCUCAACUAUGACACGCAAAACGCGUGCUCCGUUGAAUGGAGUUUAUCAUG | ≤ -4.2
GGAUCUUCUCGAUCUAACAAAAAUGACAAAUCUGCCACAAAGCUUGAGAGUAUCUUCGCAUGCAGAGGCGGCAGCCUUCGGUAUCGCGAUAGCGCCAACGUUCUCAACUAUGACACGCAAAACGCGUGCUUCGUUGAAUGGAGUUUAUCAUG | -3.74
GGAUCUUCUCGAUCUAACAAAAAUGACAAAUCUGCCAAAAAGCUUGAGAUCAUCAUCGGAGGCAGAGCCGGCAGCCUUCGGUGUCGCGAUAGCGCCAACGUUCUCAACUAUGACACGCAAAACGCGUGCUCCGUUGAAUGAAGUUUAUCAGG | ≤ -4.2
GGAUCUUCUCGAUCUAACAAAAAUGACAAAUCUGCCACAAAGCUUGAGAGGAUCAUCGCAUGCAGAGGCGGCAGCCUUCGGUGGCGCGAUAGCGCCAACGUUCUCAACUAUGACACGCAAAACGCGUGCUCCGUUGAAUGGAGUUUAUCAUG | -2.27
GGAUCUUCUCGAUCUAACAAAAAUGACAAAUCUGACACAACGCUUGAGAGCAUCUUCGGAUGCAGAGGCGGCAGCCUUCGGUGGCGCCAUAGCGCCAACGUUCUCAACUAUGACACGCAAAACGCGUGCUCCGUUGAAUGGAGUUUAUCAUG | ≤ -4.2
GGAUCUUCUCGAUCUAACAAAAAUGACAAAUCUGCGACAAAGCUUGAGAGCAUCUAAGGAUGCAGAGGCGUCAGCCUUCGGUGGCGCGAUCGCGCCAACGUUCUCCACUGUGACACGCAAAACGCGUGCUCCGUUGAGUGGAGUUUAUCAUG | ≤ -4.2
GGAUCUUCUCGAUCUAACAAAAAUGACAAAUCUGCCACAAAGCUUGAGAGCAUCUUCGGAUGAAGAGGCGGCAGCCUUCGGUGGCGCGAUAGCGCCAACGUUCUCAACUAUGACACGCAAAACGCGUGCUCCGUUGAAUGGAGUUUAUCAUG | 1.21
GGAUCUUCUCGAUCUAACAAAAAUGACAAAUCUGCCACAAAGCUUGAGAGCUUCUUCGGAUGCAGAGGCGGCAGCCUUCGGUGGUGCGAUAGCGCCAACGUUCUCAACUAUGACACGCAAAACGCGUGCUCCGUUGAAUGGAGUUUAUCAUG | -1.43
GGAUCUUCUCGAUCUAACAAAAAUGACAAAUCUGCCAUAAAGCUUGAGAGCAUCUUCGGAUGCAGAGGCGGCAGCCUUCGGUGGCGCGAUAGCGCCAACGUUCUCAACUAUGACACGCAAAACGCGUGCUCCGUUGAAUGGAGUUUAUCAUG | 0.361
GGAUCUUCUCGAUCUAACAAAAAUGACAAAUCUGACACAAAGCUUGAGAGCAUCUUCGGAUGCAGAGGCGGCAGCCUUCGGUGGCGAGAUCGCGCCAACGUUCUCAACUAUGACACGCAAAACGCGUGCUCCGUUGAAUGGAGUUUAUCGUG | ≤ -4.2
GGAUCUUCUCGAUCUAACAAAAAUGACAAAUCUGCCACAAAGCUUGAGAGCAUCUUCGGAUGCAGAGGCGGCAGCCUUCGGUGGCGCGAUAGCGCCAUUGUUCUCAACUAUGACACGCAAAACGCGGGCUCCGUUGAAUGGAGUUUAUCAUG | -3.94
GGAUCUUCUCGAUCUAACAAAAAUGACAAAUCUGCCACAAAGAUUGAGAGCAUCUUCGGCUGCAGAGGCGGCAGCCUUCGGUGGCGCGAUAGCGCAAACGUUCUCAACUAUGACACGCUAAACGCAUGCUCCGUUGAAUGGAGUUUAUCAUG | ≤ -4.2
GGAUCUUCUCGAUCUAACAAAAAUGACAAAUCUGCCACAAAGCUUGAGAGCGUCUUCGGAUGCAGAGGCGGCAGCCUUCGGUGGCGCGAUAGCGCCAACGUUCUCAACUAUGACACGCAAAACGCGUGCUCCGUUGAAUGGAGUUUAUCAUG | 0.771
